B1: Phosphocarrier protein HPr (Bacillus subtilis), P08877 (parent)
chain: MAQKTFKVTADSGIHARPATVLVQTASKYDADVNLEYNGKTVNLKSIMGVMSLGIAKGAEITISASGADENDALNALEETMKSEGLGE
partner: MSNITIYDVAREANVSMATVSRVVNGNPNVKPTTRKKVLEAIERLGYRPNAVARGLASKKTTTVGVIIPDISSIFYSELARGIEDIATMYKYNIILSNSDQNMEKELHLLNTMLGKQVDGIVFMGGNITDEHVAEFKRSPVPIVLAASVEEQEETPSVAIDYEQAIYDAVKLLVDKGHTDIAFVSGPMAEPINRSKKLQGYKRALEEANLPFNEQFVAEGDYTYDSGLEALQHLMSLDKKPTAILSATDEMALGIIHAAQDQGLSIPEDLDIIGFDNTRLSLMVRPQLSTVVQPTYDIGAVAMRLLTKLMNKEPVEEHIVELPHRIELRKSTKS

Variants of: B1
Conditions: with ccpa_bacsu ccpA

| effect of a mutation on the interaction | Variant |
| --- | --- |
| disrupting interaction | MAQKTFKVTADSGIHARPATVLVQTASKYDADVNLEYNGKTVNLKAIMGVMSLGIAKGAEITISASGADENDALNALEETMKSEGLGE [S46A] |

Source: IntAct's records for PubMed 22512862
